Earlier results on one substance are cited in PMC11678748.

In the data set the target is KCCYSL peptide (synthetic construct).

For HER2 (from UniProt P04626), the Kd is 0.295 µM.
